Biological target: fak1_chick PTK2 (UniProt Q00944)
Sequence (Q00944 whole entry): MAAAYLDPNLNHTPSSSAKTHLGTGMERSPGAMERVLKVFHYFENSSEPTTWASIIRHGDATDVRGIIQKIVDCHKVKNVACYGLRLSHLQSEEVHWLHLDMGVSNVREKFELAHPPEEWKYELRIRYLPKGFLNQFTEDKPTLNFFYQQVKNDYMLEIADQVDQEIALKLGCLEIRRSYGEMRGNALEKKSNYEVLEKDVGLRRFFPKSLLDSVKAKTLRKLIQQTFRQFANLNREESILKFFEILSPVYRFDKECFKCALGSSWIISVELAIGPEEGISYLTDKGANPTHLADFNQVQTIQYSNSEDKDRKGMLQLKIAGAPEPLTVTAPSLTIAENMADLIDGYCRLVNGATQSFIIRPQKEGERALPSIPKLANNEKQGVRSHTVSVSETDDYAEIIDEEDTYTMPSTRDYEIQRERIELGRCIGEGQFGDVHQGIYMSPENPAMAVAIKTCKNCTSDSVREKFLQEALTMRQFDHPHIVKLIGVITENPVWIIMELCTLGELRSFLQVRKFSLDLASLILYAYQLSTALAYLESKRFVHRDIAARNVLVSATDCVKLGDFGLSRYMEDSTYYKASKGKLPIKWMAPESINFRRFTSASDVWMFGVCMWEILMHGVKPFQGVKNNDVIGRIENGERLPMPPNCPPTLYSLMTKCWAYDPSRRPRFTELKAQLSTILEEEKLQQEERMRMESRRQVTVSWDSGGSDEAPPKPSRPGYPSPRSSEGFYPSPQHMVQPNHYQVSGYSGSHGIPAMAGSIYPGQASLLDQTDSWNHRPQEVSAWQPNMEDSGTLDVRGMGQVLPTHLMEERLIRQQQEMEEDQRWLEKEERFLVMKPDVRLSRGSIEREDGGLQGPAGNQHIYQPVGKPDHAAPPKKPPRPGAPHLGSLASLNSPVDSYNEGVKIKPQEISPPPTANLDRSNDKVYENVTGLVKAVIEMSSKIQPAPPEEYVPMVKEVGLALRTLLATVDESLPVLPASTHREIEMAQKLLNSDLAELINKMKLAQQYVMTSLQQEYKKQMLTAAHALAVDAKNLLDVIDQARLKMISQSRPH

Chain of Paxillin (Gallus gallus (Chicken)), P49024 D146A;D268A (P49024 whole entry D146A/D268A): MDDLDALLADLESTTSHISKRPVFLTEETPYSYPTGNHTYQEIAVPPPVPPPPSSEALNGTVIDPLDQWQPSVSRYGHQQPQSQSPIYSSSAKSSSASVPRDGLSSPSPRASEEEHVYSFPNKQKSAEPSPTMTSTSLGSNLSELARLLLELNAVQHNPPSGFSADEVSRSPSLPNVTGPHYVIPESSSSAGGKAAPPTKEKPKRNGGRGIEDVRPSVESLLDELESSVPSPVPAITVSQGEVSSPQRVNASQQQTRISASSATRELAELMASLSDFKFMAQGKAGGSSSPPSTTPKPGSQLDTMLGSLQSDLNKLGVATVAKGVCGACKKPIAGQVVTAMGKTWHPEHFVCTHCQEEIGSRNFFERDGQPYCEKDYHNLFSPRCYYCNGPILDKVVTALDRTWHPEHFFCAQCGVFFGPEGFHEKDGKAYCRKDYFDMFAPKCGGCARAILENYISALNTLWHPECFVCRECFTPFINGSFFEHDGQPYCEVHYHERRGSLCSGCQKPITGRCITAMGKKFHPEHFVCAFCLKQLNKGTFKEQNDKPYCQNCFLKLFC
Chain of Paxillin (Gallus gallus (Chicken)), P49024 D146A (P49024 whole entry D146A): as the sequence (P49024 whole entry D146A/D268A) above, with A268D counted along it

| effect of a mutation on the interaction | Substance |
| --- | --- |
| disrupting interaction | Paxillin (Gallus gallus (Chicken)), P49024 D146A;D268A |
| decreasing interaction | Paxillin (Gallus gallus (Chicken)), P49024 D146A |

Reference: IntAct's records for PubMed 18171471
